Laboratory results published in paper PMC8945002, “Pseudomonas aeruginosa Bacterioferritin Is Assembled from FtnA and BfrB Subunits with the Relative Proportions Dependent on the Environmental Oxygen Availability” (Biomolecules, 2022).

B1: bacterioferritin-associated ferredoxin (Bfd) (natural protein, P. aeruginosa, UniProt Q9HY80 1-73, looked up)
chain: MYVCLCQGVTDNQIRDAIYEGCCSYREVREATGVGTQCGKCACLAKQVVRETLNDLQSAQPVPAFGTTAFVAA
notes: Bfd, the bacterioferritin-associated [2Fe-2S] ferredoxin of P. aeruginosa, product of the bfd gene next to bfrB; Holds a [2Fe-2S] cluster
B2: FtnA subunit of P. aeruginosa (endogenous) (natural protein, P. aeruginosa PAO1 (endogenous), UniProt Q9HWF9 1-154, looked up)
chain: MQGHPEVIDYLNTLLTGELAARDQYFIHSRMYEDWGFSKLYERLNHEMEEETQHADALLRRILLLEGTPRMRPDDIHPGTTVPEMLEADLKLERHVRAALAKGIALCEQHKDFVSRDILKAQLADTEEDHAYWLEQQLGLIARMGLENYLQSQI
notes: FtnA, bacterial ferritin subunit of P. aeruginosa PAO1, gene PA4235 (formerly annotated bfrA); subunit mass 17,940 Da by LC-MS; Found in PAO1 only as a subunit of heterooligomeric Bfr; as 24-mer FtnA only in lysates of ΔbfrB cells cultured in 2% O2 or anaerobically; also called bacterial ferritin; formerly BfrA; source: purified from P. aeruginosa PAO1 as part of Bfr (Q Sepharose, hydroxyapatite, …)
B3: Bfr containing only BfrB subunits (24-mer BfrB) isolated from P. aeruginosa (natural protein)
chain: not shown
notes: BfrB, bacterioferritin subunit of P. aeruginosa PAO1, gene PA3531; subunit mass 18,552 Da by LC-MS; 24 copies hold for the homooligomer (SPR target, self rows); in the rows with m3 it stands for the BfrB subunits of the heterooligomeric 24-mer Bfr; also called homooligomeric BfrB; Bfr (0% FtnA, 21% O2); source: purified from P. aeruginosa PAO1 or ΔftnA cells (Q Sepharose, hydroxyapatite, Superdex …)

Experiments:
[1] = biological target: B3; assay: SPR; Biacore X100, 25 °C; Bfr or FtnArec immobilised on CM5 chips by amine coupling (100 nM in 10 mM sodium acetate pH 5.0); Bfd 0-40 μM flowed at 5 µL/min in PBS pH 7.4 with 1 mM TCEP; steady-state analysis, steric factor n set to 0.91; conditions: both partners purified
[2] = biological target: T1, heterooligomeric 24-mer Bfr containing ~45% FtnA, isolated from PAO1 cells cultured in 2% O2 (P. aeruginosa PAO1 (endogenous), UniProt Q9HY79 1-158; Q9HWF9 1-154); assay: as above; conditions: both partners purified
T1 construct: BfrB subunit of P. aeruginosa PAO1, gene PA3531; 18,552 Da; ~55% of the 24 subunits; FtnA subunit of P. aeruginosa PAO1, gene PA4235; 17,940 Da; ~45% of the 24 subunits; 24 subunits in all; a population of molecules of varying composition, on average ~45% FtnA; heme in the BfrB dimers; also called heterooligomeric Bfr; Bfr 45 (2% O2); source: purified from P. aeruginosa PAO1 cultured in 2% O2 (Q …)
T1 sequence (Q9HY79 whole entry, chain 1 of 2, one chain of several): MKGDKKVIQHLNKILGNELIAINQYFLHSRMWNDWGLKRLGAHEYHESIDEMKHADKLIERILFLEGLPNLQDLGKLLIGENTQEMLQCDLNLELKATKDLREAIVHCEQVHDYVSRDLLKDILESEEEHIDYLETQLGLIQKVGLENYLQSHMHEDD

[3] = biological target: the molecule itself; assay: native gel or EMSA; lysates of PAO1, ΔftnA and ΔbfrB cells (21%, 10%, 2% O2 or anaerobic) on native PAGE, stained for iron with Ferene S; BfrBrec and FtnArec as mobility standards; bands excised, digested with trypsin and identified by LC-MS
[4] = biological target: the molecule itself; assay: SEC; Superdex 200 Increase 10/300 GL, 100 mM phosphate buffer pH 7.6, 1 mM TCEP; pure Bfr from P. aeruginosa; elution volume compared with a ferritin standard

Which Kd [1] does the source give for B1 here?
The Kd was 4.7 ± 0.8 µM.

And the Kd [2]?
Its Kd is 4.3 ± 0.5 µM.

For B2, which “stoichiometry N” value [3] is on record?
Its value is 24.

How did the “stoichiometry N” value [4] turn out when B3 was run?
Its value is 24.
